In paper PMC7281310, “Pharmacokinetic Analysis of Epithelial/Endothelial Cell Barriers in Microfluidic Bilayer Devices with an Air–Liquid Interface” (Micromachines, 2020):

Legend:
[1] = Permeability in Transwells without cells; type: in vitro ADME; settings: no cells; 12-well Transwell, polyester membrane, 0.4 µm pores, 1.12 cm^2; static, top to bottom chamber; 2 h; endothelial cell media; C0 = 60, 3, 1, 3 µM for 4-dextran, C-dextran, 70-dextran, insulin; fluorescence plate reader; n = 3
Experimental: (§1) Commercially-available 12-well Transwells (Corning, Corning, NY, USA), with polyester membranes, were utilized to assess static compound permeability in the absence of flow-induced shear stress. The area of each Transwell membrane was 1.12 cm^2 with 0.4 µm diameter pores and 0.5% porosity. Epithelial cells were seeded in the Transwell top apical compartment at a density of 2 × 10^6 cells/mL. Once the cell monolayer had reached confluency, the 500 µL culture media in the top compartment was replaced with a solution of endothelial cell media mixed with various fluorescently-labeled compounds at a pre-determined initial concentration. The bottom basolateral compartment was filled with 1500 µL fresh endothelial cell culture media, and the Transwell was placed in an incubator for 2 h. Then, liquid samples of 100 µL from both compartments were aliquoted into a 96-well plate. Fluorescent intensities of the collected samples were measured, using a BioTek Synergy 2 Plate Reader (BioTek, Winooski, VT, USA), and converted to molecular concentrations as reported elsewhere.
(§2) Investigation of molecular transport across Transwell membranes is useful in establishing baseline permeability characteristics with no shear stress. […] The molecular concentration at the Transwell bottom chamber CT was then measured after 2 h. […]

A549 epithelial cells [2] = assay: Permeability in Transwells with A549 cell monolayer; type: in vitro ADME, human; settings: confluent A549 monolayer in apical chamber; 12-well Transwell, polyester membrane, 0.4 µm pores, 1.12 cm^2; static, top to bottom chamber; 2 h; endothelial cell media; C0 = 60, 3, 1, 3 µM for 4-dextran, C-dextran, 70-dextran, insulin; fluorescence plate reader; n = 3
Experimental: as §1, with “elsewhere. […]” for “elsewhere.”
as §2

A549 epithelial cells [3] = assay: Trypan blue cell viability assay, A549; type: cell-based, human; settings: insulin at 10 µM, 1 h exposure
Experimental: (§3) In general, higher compound concentration is desired since the emitted light intensity increases with molecular concentration enhancing the signal-to-noise ratio and, thereby, improving the reliability of the measured concentration. However, some compounds could be toxic agents to cell cultures; as the signal intensity increases with increasing compound concentration, cells could be adversely affected resulting in cell death. […] Epithelial and endothelial cells were seeded and cultured in 96-well plates for 48 h. The cell cultures were exposed to the selected compounds at various concentrations for 1 h and then washed using PBS. Next, the wells were immersed in 0.2% Trypan Blue for 10 min, after which the cells were fixed using 4% paraformaldehyde and rinsed with PBS. Using a brightfield microscope, dead cells were counted using uptake of trypan blue as a marker for nonviable cells.

HUVEC endothelial cells = assay: Trypan blue cell viability assay, HUVEC; type: cell-based, human; settings: tested concentration range 10^−3–10^1 µM, 1 h exposure
Experimental: as §3

[4] = Turbidity / fibril formation after agitation in jet nebulizer (fluorescent intensity, visual pellet); type: physicochemical
Experimental: In order to generate an aerosol, using a jet nebulizer, a high-pressure air stream is forced through a liquid solution to form a mixture of tiny liquid droplets suspended in air. […] Visual inspection of the upper jet nebulizer platform provides an indirect evidence for insulin fibril formation. The photographs of the nebulizer platform, shown in Figure 8, were taken following 5 min of the solution agitation.
The intensity of the agitated and un-agitated dextran is approximately the same (Ia/Iu ≅ 1), indicating constant transparency with and without agitation, which is consistent with the lack of a dextran pellet on the nebulizer platform. […] The initially lower intensity of the agitated insulin with its low transparency, which is correlated with the pellet formation on the nebulizer platform, can be due to insulin fibril formation.

[5] = Permeability of agitated vs un-agitated insulin in Transwells without cells; type: in vitro ADME; settings: agitated 5 min in jet nebulizer, 20 min diffusion time, fluorescence
Experimental: The permeability values, calculated based on concentration measurements in the Transwell bottom compartments after 20 min diffusion time, are shown in Figure 10. […] It is; therefore, critical to maintain the stability of compounds during aerosol generation process in order to obtain reliable concentration–time plots using microfluidic bilayer devices with an air–liquid interface.

some cell types = settings: 30 min exposure; cited from earlier work
[6] = set-up: method as in PMID 21641324, PMID 18646033; settings: under conditions similar to the present experiments; cited from earlier work

## Insulin: Fluorescently tagged (FITC) insulin, 5.8 kDa, used at 3 µM as potential inhaled therapeutic compound
[1]
  Permeability in Transwells, Pat: 1.58e-05 cm/s
A549 epithelial cells [2]
  Permeability in Transwells, Pat: 5e-06 cm/s
A549 epithelial cells [3]
  A549 epithelial cell viability: 88%
HUVEC endothelial cells
  Cytotoxicity to HUVEC cells (in words): did not have adverse effect
[4]; after 5 min agitation in a jet nebulizer
  Time to reach steady-state Ia/Iu: ≤ 20 min
[4]; following 5 min of solution agitation
  Pellet (solution turbidity) on nebulizer platform, visual inspection: visible
[4]; following 5 min of solution agitation, visual inspection
  Time for pellet to disappear: within half an hour
[5]
  Permeability of agitated solution compared with un-agitated solution: clearly lower
Some cell types
  Concentration at which some cell types start to exhibit signs of cell death: greater than 1 µM
[6]
  Time of fibril dissociation: < 1 h
